Tests used:
Experiment in all cases: ProImmune REVEAL MHC class I-peptide binding assay
A*11:01 (human), P04439 = target: A*11:01 (human), P04439
B*07:02 (human), P01889 = target: B*07:02 (human), P01889
A*02:01 (human), P04439 = target: A*02:01 (human), P04439
A*24:02 (human), P04439 = target: A*24:02 (human), P04439
H-2Kb (mouse), P01901 = target: T1, H-2Kb (mouse), P01901
T1 chain: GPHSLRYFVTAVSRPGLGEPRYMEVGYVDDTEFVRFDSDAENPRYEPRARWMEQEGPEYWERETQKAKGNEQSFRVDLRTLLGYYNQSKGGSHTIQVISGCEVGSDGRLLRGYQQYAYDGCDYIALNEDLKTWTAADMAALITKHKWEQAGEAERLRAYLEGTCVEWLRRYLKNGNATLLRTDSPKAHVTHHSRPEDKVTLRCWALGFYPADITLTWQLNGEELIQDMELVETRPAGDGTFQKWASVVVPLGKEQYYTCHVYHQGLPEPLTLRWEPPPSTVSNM

Row | Binder | REVEAL score at 0 h (A*02:01 (human), P04439) | REVEAL score at 0 h (H-2Kb (mouse), P01901) | other results
1 | ISGDDCVVK (modifications not checked) |  |  | REVEAL score at 0 h (A*11:01 (human), P04439): 88.7
2 | GTYGLNTFT (modifications not checked) |  |  | REVEAL score at 0 h (A*11:01 (human), P04439): 63.6
3 | SRNSTHEMY (modifications not checked) |  |  | REVEAL score at 0 h (B*07:02 (human), P01889): 52
4 | MWHVTRGAV (modifications not checked) | 62.7 |  | 
5 | VVAAEMEEA (modifications not checked) | 92.2 |  | 
6 | VGTYGLNTF (modifications not checked) |  |  | REVEAL score at 0 h (A*24:02 (human), P04439): 96
7 | AISGDDCVV (modifications not checked) | 91.1 |  | 
8 | KLTYQNKVV (modifications not checked) | 92.3 |  | 
9 | IPERSWNSG (modifications not checked) |  |  | REVEAL score at 0 h (B*07:02 (human), P01889): 45.2
10 | HWTEAKMLL (modifications not checked) |  |  | REVEAL score at 0 h (A*24:02 (human), P04439): 103
11 | CHATFTMRL (modifications not checked) |  | 60.3 | REVEAL score at 0 h (A*24:02 (human), P04439): 75.9
12 | LMRRGDLPV (modifications not checked) | 82.3 |  | REVEAL score at 0 h (B*07:02 (human), P01889): 179
13 | YGLNTFTNM (modifications not checked) |  | 75.4 | 
14 | MGEAAAIFM (modifications not checked) | 50.6 |  | 
15 | TVWFVPSIK (modifications not checked) |  |  | REVEAL score at 0 h (A*11:01 (human), P04439): 92.2
16 | IVDLMCHAT (modifications not checked) | 62.7 |  | 
17 | LSRNSTHEM (modifications not checked) |  | 51.1 | REVEAL score at 0 h (B*07:02 (human), P01889): 124
18 | LMYFHRRDL (modifications not checked) | 97.8 | 54.9 | REVEAL score at 0 h (B*07:02 (human), P01889): 120
19 | HATFTMRLL (modifications not checked) |  | 69.5 | 
20 | YFHRRDLRL (modifications not checked) |  |  | REVEAL score at 0 h (A*24:02 (human), P04439): 87.5
21 | PERVILAGP (modifications not checked) |  |  | REVEAL score at 0 h (B*07:02 (human), P01889): 56.1
22 | ATFTMRLLS (modifications not checked) |  | 55.6 | REVEAL score at 0 h (A*11:01 (human), P04439): 58.5
23 | FKPGTSGSP (modifications not checked) |  | 45.7 | REVEAL score at 0 h (B*07:02 (human), P01889): 50.4
24 | QQRVFKEKV (modifications not checked) |  | 63.4 | 
25 | GLYGNGVVT (modifications not checked) | 87.7 |  | 
26 | PLSRNSTHE (modifications not checked) |  |  | REVEAL score at 0 h (B*07:02 (human), P01889): 65
27 | LAPTRVVAA (modifications not checked) |  | 102 | 
28 | WTEAKMLLD (modifications not checked) |  |  | REVEAL score at 0 h (A*24:02 (human), P04439): 94.7
